{"source": "paper PMC9977887", "about": "“Crocodile defensin (CpoBD13) antifungal activity via pH-dependent phospholipid targeting and membrane disruption” (Nature Communications, 2023)", "key": {"U937 cells": {"test_system": "U937 cells", "test": "Propidium iodide uptake assay in serum-free medium", "type": "cell-based, human", "quoted_text": "For propidium iodide uptake assays in serum-free medium, U937 cells (after centrifugation at 300 g, 5 min) were washed once in serum-free RPMI-1640, pelleted again (as previous centrifugation) and resuspended in serum-free media. […] PI (diluted in ice-cold PBS) was added to a final concentration of 1 µg/mL before analysis by flow cytometry using a BD FACSCanto II with FACSDiva 8.0.1 (BD Biosciences)."}, "C. albicans ATCC 10231 [1]": {"test_system": "C. albicans ATCC 10231", "test": "Fungal growth inhibition assay, salt tolerance (NaCl)", "type": "cell-based, Candida albicans", "conditions": "NaCl concentrations of 100 mM; 24 h", "description": "(§1) For fungal growth assays, overnight cultures of C. albicans ATCC 10231 cells (yeast peptone dextrose broth, 30°C, shaking at 160 rpm) were pelleted (2000 g, 5 min), washed once in 0.5× potato dextrose broth (BD Biosciences, Franklin Lakes, NJ) and finally resuspended in the same media. Cells were seeded onto a 96-well plate (400 cells, 50 µL) and treated with an equal volume of varying concentrations of defensin in 0.5× potato dextrose broth. After incubating the samples (24 h, 30 °C), the plates were shaken to distribute the cells and growth was determined by performing a 9-well scan (600 nm) using a Spectramax M5e microplate reader (Molecular Devices, San Jose, CA). For assays testing defensin salt tolerance, C. albicans cells were instead resuspended in 1x potato dextrose broth and treated with an equal volume of CpoBD13 + NaCl solution at their intended concentrations. Propidium iodide (PI) uptake assays were performed by preparing the cells as per the standard growth inhibition assay however they were instead seeded onto a U-bottom 96-well plate (50,000 cells, 25 µL). […] For PI uptake experiments performed at a specific pH, the same method was followed with the exception that cells were resuspended in 1× potato dextrose broth while defensin titrations were diluted in 40 mM MES buffer at the intended pH. An example PI uptake gating strategy is presented in Supplementary Fig. 1d."}, "C. albicans ATCC 10231 [2]": {"test_system": "C. albicans ATCC 10231", "test": "Fungal growth inhibition assay", "type": "cell-based, Candida albicans", "conditions": "for IC50: unit not in table, µM", "description": "as §1"}, "PC3 cells": {"test_system": "PC3 cells", "test": "MTT/MTS cell viability assay", "type": "cell-based, human", "conditions": "48 h, at the assessed concentrations", "excerpt": "Human epithelial cervical cancer (HeLa, ATCC, CCL-2), prostate cancer (PC3, ATCC, CRL-1435) and histiocytic lymphoma (U937, ATCC, CRL-1593.2) cells were obtained from the American Type Culture Collection (Gaithersburg, Maryland) and cultured in RPMI-1640 medium (Thermo Fisher Scientific, Waltham, MA) supplemented with 5–10% (v/v) foetal bovine serum (FBS), 100 U/mL penicillin and 100 U/mL streptomycin (Invitrogen, Carlsbad, CA). Adult human dermal fibroblasts (AHDF, Lonza, CC-2511) cells were obtained from Lonza (Basel, Switzerland) and cultured in Dulbecco’s Modified Eagle Medium (DMEM) (Thermo Fisher Scientific) supplemented with 10% (v/v) FBS, 100 U/mL penicillin and 100 U/mL streptomycin. Human umbilical vein epithelial (HUVEC, Lonza, CC-2519) cells were obtained from Lonza and cultured in EBM-2 medium supplemented with EGM-2 SingleQuots (Lonza). All cell lines were maintained at 37 °C in a humidified incubator with 5% CO2.\nCell viability assays were performed using MTT/MTS as previously described[8]."}}, "note": "pIC50: −log10 of the molar value. Read-outs that look alike come from different tables or passages of the source. Where no end group is shown, it is not given here.", "data": [{"substance": "CpoBD13: saltwater crocodile β-defensin 13, histidine-rich, three disulphide bonds, recombinantly expressed in Pichia pastoris (NGSYYSTLQCRNNHGHCRRLCFHGEQWIGNCNGRHQHCCK; disulfide (positions not given here); also: three disulphide bonds, pairings not given here)", "values": [{"measurement": "effect on cell viability", "setting": "AHDF cells", "value": "did not affect the viability"}, {"measurement": "PI positivity (%)", "setting": "U937 cells; 1.5625 μM CpoBD13, replicate 1", "value": 3.27, "unit": "%"}, {"measurement": "PI positivity (%)", "setting": "U937 cells; 1.5625 μM CpoBD13, replicate 2", "value": 9.7, "unit": "%"}, {"measurement": "PI positivity (%)", "setting": "U937 cells; 1.5625 μM CpoBD13, replicate 3", "value": 3.5, "unit": "%"}, {"measurement": "PI positivity (%)", "setting": "U937 cells; 3.125 μM CpoBD13, replicate 1", "value": 2.47, "unit": "%"}, {"measurement": "PI positivity (%)", "setting": "U937 cells; 3.125 μM CpoBD13, replicate 2", "value": 6.8, "unit": "%"}, {"measurement": "PI positivity (%)", "setting": "U937 cells; 3.125 μM CpoBD13, replicate 3", "value": 4.1, "unit": "%"}, {"measurement": "PI positivity (%)", "setting": "U937 cells; 6.25 μM CpoBD13, replicate 1", "value": 1.67, "unit": "%"}, {"measurement": "PI positivity (%)", "setting": "U937 cells; 6.25 μM CpoBD13, replicate 2", "value": 10.8, "unit": "%"}, {"measurement": "PI positivity (%)", "setting": "U937 cells; 6.25 μM CpoBD13, replicate 3", "value": 1, "unit": "%"}, {"measurement": "PI positivity (%)", "setting": "U937 cells; 12.5 μM CpoBD13, replicate 1", "value": 3.27, "unit": "%"}, {"measurement": "PI positivity (%)", "setting": "U937 cells; 12.5 μM CpoBD13, replicate 2", "value": 9.1, "unit": "%"}, {"measurement": "PI positivity (%)", "setting": "U937 cells; 12.5 μM CpoBD13, replicate 3", "value": 14.3, "unit": "%"}, {"measurement": "PI positivity (%)", "setting": "U937 cells; 25 μM CpoBD13, replicate 1", "value": 2.27, "unit": "%"}, {"measurement": "PI positivity (%)", "setting": "U937 cells; 25 μM CpoBD13, replicate 2", "value": 13.1, "unit": "%"}, {"measurement": "PI positivity (%)", "setting": "U937 cells; 25 μM CpoBD13, replicate 3", "value": 14.3, "unit": "%"}, {"measurement": "PI positivity (%)", "setting": "U937 cells; 50 μM CpoBD13, replicate 1", "value": 2.77, "unit": "%"}, {"measurement": "PI positivity (%)", "setting": "U937 cells; 50 μM CpoBD13, replicate 2", "value": 20.5, "unit": "%"}, {"measurement": "PI positivity (%)", "setting": "U937 cells; 50 μM CpoBD13, replicate 3", "value": 18.6, "unit": "%"}, {"measurement": "PI positivity (%)", "setting": "U937 cells; 100 μM CpoBD13, replicate 1", "value": 15.77, "unit": "%"}, {"measurement": "PI positivity (%)", "setting": "U937 cells; 100 μM CpoBD13, replicate 2", "value": 6.8, "unit": "%"}, {"measurement": "PI positivity (%)", "setting": "U937 cells; 100 μM CpoBD13, replicate 3", "value": 23, "unit": "%"}, {"measurement": "membrane permeabilisation (PI uptake)", "setting": "U937 cells; serum-free media, 30 min, 37°C", "value": "unable to effectively permeabilise"}, {"measurement": "antifungal activity in NaCl", "setting": "C. albicans ATCC 10231 [1]", "value": "retained antifungal activity"}, {"measurement": "IC50", "setting": "C. albicans ATCC 10231 [2]; 24 h, Replicate 1, read-out: IC50", "value": 4.19, "unit": "µM"}, {"measurement": "IC50", "setting": "C. albicans ATCC 10231 [2]; 24 h, Replicate 2, read-out: IC50", "value": 4.11, "unit": "µM"}, {"measurement": "IC50", "setting": "C. albicans ATCC 10231 [2]; 24 h, Replicate 3, read-out: IC50", "value": 4.1, "unit": "µM"}, {"measurement": "pIC50", "setting": "C. albicans ATCC 10231 [2]; 24 h, mean, n = 3, assessed range 0–10 µM, read-out: IC50 of fungal growth inhibition", "value": 5.39}, {"measurement": "pIC50", "setting": "C. albicans ATCC 10231 [2]; Replicate 1, read-out: IC50", "value": 5.27}, {"measurement": "pIC50", "setting": "C. albicans ATCC 10231 [2]; Replicate 2, read-out: IC50", "value": 5.27}, {"measurement": "pIC50", "setting": "C. albicans ATCC 10231 [2]; Replicate 3, read-out: IC50", "value": 5.26}, {"measurement": "effect on cell viability", "setting": "PC3 cells", "value": "did not affect the viability"}]}]}
